The assay deals with Recombinant human MASP-2 (stabilized in a proenzyme form by mutation of the active site Ser 618 into Ala) (human). Briefly: SPR; BIAcore 3000, 25 °C; BMP-1, mTLL-1 or MASP-2 immobilised by amine coupling on CM5; C1q or MBL injected (60 µl, 20 µl/min) at several concentrations in 50 mM triethanolamine-HCl, 145 mM NaCl, 2 mM CaCl2, 0.005% surfactant P20, pH 7.4; global fit to a 1:1 Langmuir model; apparent KD from kd/ka. Background: Surface plasmon resonance follows binding to a sensor surface in real time, without labels.

Chain of Recombinant human mannose-binding lectin (MBL) (P11226 21-248): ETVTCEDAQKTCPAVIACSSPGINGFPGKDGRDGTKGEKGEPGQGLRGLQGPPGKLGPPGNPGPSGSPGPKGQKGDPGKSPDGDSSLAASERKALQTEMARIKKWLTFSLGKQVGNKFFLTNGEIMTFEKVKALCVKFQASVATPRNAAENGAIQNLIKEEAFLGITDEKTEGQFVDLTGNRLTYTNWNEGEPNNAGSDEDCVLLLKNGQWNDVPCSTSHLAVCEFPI

Broadly, the koff is the first-order rate constant of dissociation. The term kon denotes the rate constant with which the complex forms. Consider “Recombinant human mannose-binding lectin (MBL) (from UniProt P11226 21-248) (natural protein)”, for which the Kd is 1.7 nM, the koff was found to be 0.00047 s⁻¹ and the kon worked out at 280000 M⁻¹ s⁻¹.

The values are drawn from publication PMC5717261.
